Test results as given in the RNAGym collection of RNA variant scans (doi:10.1073/pnas.2313332121).

B1: TPR t1 (parent)
chain: GACCAAUCUGCCCUCAGAGCUCGAGAACAUCUUCGGAUGCAGAGGAGGCAGGCUUCGGUGGCGCGAUAGCGCCAACGUCCUCAACCUCCAAUGCAUCCCACCACAUGAUGAUGCCUGAAGAGCCUUGGUUUUUUG

Variants of: B1
Experiment: polymerase ribozyme fitness, log enrichment relative to wild type (log ratio); higher = more active; in vitro selection for triplet polymerase activity
How it was run: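 To select mutant libraries of each subunit of a heterodimeric triplet polymerase ribozyme, built by PCR and transcribed, each was annealed with a biotinylated primer, partner subunit and triplets, then incubated frozen at −7 °C. Extended constructs were gel-excised, captured on streptavidin beads and amplified by RT-PCR, in one round carried out in triplicate. Illumina sequencing of input and output libraries kept genotypes with ≥10 input reads and ≥1 read per output. Fitness is the base-2 logarithm of genotype enrichment relative to wild-type enrichment, from inverse-variance-weighted replicate averages.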

Variant	polymerase ribozyme fitness (log ratio)
GACCAAUCUGCCCUCAGAGCUCGAGAACAUCUUCGGAUGCAGAGGAGGCAGGCUUCGGUGGCGCGAUAGCGCCAACGUCAUCAACCUCCAAUUCAUCCCACCACAUGAUGAUGCCUGAACAGCCUUGGUUUUUUG [C80A G93U G120C]	-4.31
GACCAAUCUGCCCUCAGAGCUCGAGAACAUCUUCGGAUGCAGAGGAGGCAGGCUUCGGUGGCGCGAUAGCGCCAACGUCAUCAACCUCCAAUGCAUCCCACCACAUGAUGAUGCCUUAAGAGCCUUGGUUUUUUG [C80A G117U]	-5.19
GACCAAUCUGCCCUCAGAGCUCGAGAACAUCUUCGGAUGCAGAGGAGGCAGGCUUCGGUGGCGCGAUAGCGCCAACGUCAUCAACCUCCAAUGCAUCCCACCACAUGGUGAUGCCUGAAGAGCCUUGGUUUUUUG [C80A A108G]	-5.73
GACCAAUCUGCCCUCAGAGCUCGAGAACAUCUUCGGAUGCAGAGGAGGCAGGCUUCGGUGGCGCGAUAGCGCCAACGUCAUCAACCUCCAAUGCAUCCCACCACAUGAUGAUGCCUGGAGAGCCUUGGUUUUUUG [C80A A118G]	-3.23
GACCAAUCUGCCCUCAGAGCUCGAGAACAUCUUCGGAUGCAGAGGAGGCAGGCUUCGGUGGCGCGAUAGCGCCAACGUCAUCAACCUCCAAUGCAUCCCACCACAUGAUGAUCCCUGAAGAGCCUUGGUUUUUUG [C80A G113C]	-5.5
GACCAAUCUGCCCUCAGAGCUCGAGAACAUCUUCGGAUGCAGAGGAGGCAGGCUUCGGUGGCGCGAUAGCGCCAACGUCAUCAACCUCCAAUGCAUCCCACCACAUGAUGAUACCUGAAGAGCCUUGGUUUUUUG [C80A G113A]	-3.03
GACCAAUCUGCCCUCAGAGCUCGAGAACAUCUUCGGAUGCAGAGGAGGCAGGCUUCGGUGGCGCGAUAGCGCCAACGUCAUCAACUUCCAAUGCAUCCCACCACAUGAUGAUGCCUGAAGAGCCUUGGUUUUUUG [C80A C86U]	-3.32
GACCAAUCUGCCCUCAGAGCUCGAGAACAUCUUCGGAUGCAGAGGAGGCAGGCUUCGGUGGCGCGAUAGCGCCAACGUCAUCAACCUCCAAUGCAUCCCACCACAUGAUGAUGCCUGAACAGCCUUGGUUUUUUG [C80A G120C]	-2.2
GACCAAUCUGCCCUCAGAGCUCGAGAACAUCUUCGGAUGCAGAGGAGGCAGGCUUCGGUGGCGCGAUAGCGCCAACGUCAUCAACCUCCAAUGCAUCCCACCACAUGAUGAUGCCUGAAUAGCCUUGGUUUUUUG [C80A G120U]	-2.35
GACCAAUCUGCCCUCAGAGCUCGAGAACAUCUUCGGAUGCAGAGGAGGCAGGCUUCGGUGGCGCGAUAGCGCCAACGUCAUCAACCUCCAAUGCUUCCCACCACAUGAUGAUGUCUGAAGAGCUUUGGUUUUUUG [C80A A95U C114U C124U]	-7.55
GACCAAUCUGCCCUCAGAGCUCGAGAACAUCUUCGGAUGCAGAGGAGGCAGGCUUCGGUGGCGCGAUAGCGCCAACGUCAUCAACCUCCAAUGCAUGCCACCACAUGAUGAUGCCUCAAGAGCCUUGGUUUUUUG [C80A C97G G117C]	-7.22
GACCAAUCUGCCCUCAGAGCUCGAGAACAUCUUCGGAUGCAGAGGAGGCAGGCUUCGGUGGCGCGAUAGCGCCAACGUCAUCACCCUCCAAUGCAUCCCACCACAUGAUGAUGCCUGAAGAGCCUUGGUUUUUUG [C80A A84C]	-3.11
GACCAAUCUGCCCUCAGAGCUCGAGAACAUCUUCGGAUGCAGAGGAGGCAGGCUUCGGUGGCGCGAUAGCGCCAACGUCAUCAACCUCCAAUGCAUCCCACCACAUGAUGAUGCCUGAAGCGCCUUGGUUUUUUG [C80A A121C]	-1.11
GACCAAUCUGCCCUCAGAGCUCGAGAACAUCUUCGGAUGCAGAGGAGGCAGGCUUCGGUGGCGCGAUAGCGCCAACGUCAUCAACCUCCAAUGCAUCCCACCACAUGAUGAUGCUUGAAGAGCCUUGGUUUUUUG [C80A C115U]	-4.97
GACCAAUCUGCCCUCAGAGCUCGAGAACAUCUUCGGAUGCAGAGGAGGCAGGCUUCGGUGGCGCGAUAGCGCCAACGUCAUCAACCUCCAAUACAUCCCACCACAUGAUGAUGCCUGAAGAGCCUUGGUUUUUUG [C80A G93A]	-3.95
GACCAAUCUGCCCUCAGAGCUCGAGAACAUCUUCGGAUGCAGAGGAGGCAGGCUUCGGUGGCGCGAUAGCGCCAACGUCAUCAACCUCCAAUGCGUCCCACCACAUGAUGAUGCCUGAAGAGCCUUGGUUUUUUG [C80A A95G]	-3.38
GACCAAUCUGCCCUCAGAGCUCGAGAACAUCUUCGGAUGCAGAGGAGGCAGGCUUCGGUGGCGCGAUAGCGCCAACGUCAUCAACCUCCAAUGCAUACCACCACAUUAUGAUGCUUGAAGAGCCUUGGUUUUUUG [C80A C97A G107U C115U]	-7.92
GACCAAUCUGCCCUCAGAGCUCGAGAACAUCUUCGGAUGCAGAGGAGGCAGGCUUCGGUGGCGCGAUAGCGCCAACGUCAUCAACCUCCAAUGCAUCCCACCACAUGAUGAUGCCUGAAGAGCCUUUGUUUUUUG [C80A G127U]	-3.48
GACCAAUCUGCCCUCAGAGCUCGAGAACAUCUUCGGAUGCAGAGGAGGCAGGCUUCGGUGGCGCGAUAGCGCCAACGUCAUCAACCUCCAGUGCAUCCCACCACAUGAUGAUGCCUGAAUAGCCUUGGUUUUUUG [C80A A91G G120U]	-5.41
GACCAAUCUGCCCUCAGAGCUCGAGAACAUCUUCGGAUGCAGAGGAGGCAGGCUUCGGUGGCGCGAUAGCGCCAACGUCAUCAACCUCCAAUGUAUCCCACCACAUGAUGAUGCCUGAAGAGCCUUGGUUUUUUG [C80A C94U]	-2.69
GACCAAUCUGCCCUCAGAGCUCGAGAACAUCUUCGGAUGCAGAGGAGGCAGGCUUCGGUGGCGCGAUAGCGCCAACGUCAUCAACCUCCAAUGAAUCCCACCACAUGAUGACGCCUGAAGAGCCUUGGUUUUUUG [C80A C94A U112C]	-2.27
